Columns and labels:
[1] = molecular target: T1, HE4 (UniProt Q14508 31-124); experiment: SPR (Biacore T100), antibody captured by Protein A, antigen injected
T1 sequence (looked up): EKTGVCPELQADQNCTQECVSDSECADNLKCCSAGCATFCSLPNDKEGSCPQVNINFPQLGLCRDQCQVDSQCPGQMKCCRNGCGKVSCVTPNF

[2] = molecular target: T2, CEACAM1 (UniProt P13688 35-428, limits assumed); experiment: as above
T2 sequence (looked up): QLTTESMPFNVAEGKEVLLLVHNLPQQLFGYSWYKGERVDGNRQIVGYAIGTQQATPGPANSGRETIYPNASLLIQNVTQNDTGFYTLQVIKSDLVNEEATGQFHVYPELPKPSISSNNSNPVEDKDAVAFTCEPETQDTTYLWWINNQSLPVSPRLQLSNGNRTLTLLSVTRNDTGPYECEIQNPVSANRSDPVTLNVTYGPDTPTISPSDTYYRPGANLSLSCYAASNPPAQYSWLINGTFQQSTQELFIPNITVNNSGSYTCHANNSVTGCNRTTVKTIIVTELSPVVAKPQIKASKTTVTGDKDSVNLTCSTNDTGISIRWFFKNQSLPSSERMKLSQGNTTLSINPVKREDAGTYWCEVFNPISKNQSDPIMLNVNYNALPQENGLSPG

[3] = molecular target: T3, CEACAM3 (UniProt P40198 35-155, limits assumed); experiment: as above
T3 sequence (looked up): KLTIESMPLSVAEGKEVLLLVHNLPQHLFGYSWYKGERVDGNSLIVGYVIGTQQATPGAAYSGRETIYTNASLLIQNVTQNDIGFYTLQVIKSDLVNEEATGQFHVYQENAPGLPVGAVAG

[4] = molecular target: T4, CEACAM6 (UniProt P40199 35-320, limits assumed); experiment: as above
T4 sequence (looked up): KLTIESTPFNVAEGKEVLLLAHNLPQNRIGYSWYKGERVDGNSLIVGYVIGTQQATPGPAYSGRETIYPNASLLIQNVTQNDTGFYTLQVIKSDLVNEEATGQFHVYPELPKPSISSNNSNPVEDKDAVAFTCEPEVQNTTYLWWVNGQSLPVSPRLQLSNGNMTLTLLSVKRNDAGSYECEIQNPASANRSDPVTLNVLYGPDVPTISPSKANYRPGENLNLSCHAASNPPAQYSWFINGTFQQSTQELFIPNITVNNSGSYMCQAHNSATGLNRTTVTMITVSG

[5] = molecular target: T5, CEACAM8 (UniProt P31997 35-320, limits assumed); experiment: as above
T5 sequence (looked up): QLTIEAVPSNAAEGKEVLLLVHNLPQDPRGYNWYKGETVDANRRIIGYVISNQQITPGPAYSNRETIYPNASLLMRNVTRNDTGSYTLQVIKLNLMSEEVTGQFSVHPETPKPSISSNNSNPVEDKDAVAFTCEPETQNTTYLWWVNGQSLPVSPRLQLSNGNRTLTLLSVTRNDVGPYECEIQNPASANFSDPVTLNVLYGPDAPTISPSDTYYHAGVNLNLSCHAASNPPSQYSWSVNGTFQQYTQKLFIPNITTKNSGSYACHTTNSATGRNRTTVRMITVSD

[6] = molecular target: T6, AFP (UniProt P02771 19-609); experiment: as above
T6 sequence (looked up): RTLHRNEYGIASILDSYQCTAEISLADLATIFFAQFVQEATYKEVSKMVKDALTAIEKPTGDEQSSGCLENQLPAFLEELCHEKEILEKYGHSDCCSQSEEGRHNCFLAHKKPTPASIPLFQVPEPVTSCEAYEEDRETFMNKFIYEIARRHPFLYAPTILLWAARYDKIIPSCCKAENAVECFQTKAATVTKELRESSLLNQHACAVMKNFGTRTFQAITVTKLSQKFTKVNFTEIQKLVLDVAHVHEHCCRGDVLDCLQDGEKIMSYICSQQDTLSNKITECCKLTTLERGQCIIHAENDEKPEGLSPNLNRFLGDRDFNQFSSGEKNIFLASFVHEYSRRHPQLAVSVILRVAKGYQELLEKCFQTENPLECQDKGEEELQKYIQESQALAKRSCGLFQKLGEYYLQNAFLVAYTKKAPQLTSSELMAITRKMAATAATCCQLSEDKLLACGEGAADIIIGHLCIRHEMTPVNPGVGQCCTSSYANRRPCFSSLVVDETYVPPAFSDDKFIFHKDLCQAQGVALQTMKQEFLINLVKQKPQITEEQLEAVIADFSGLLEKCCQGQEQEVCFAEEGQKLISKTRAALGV

[7] = molecular target: 癌胚抗原 (CEA, CEACAM5) (UniProt P06731); experiment: SPR (Biacore T100), antibody captured by Protein A, antigen injected at 100μg/ml

B1: 2D5 连接至带有恒定区的载体 (2D5 nanobody with constant region) (Fc fusion)
chain: ESGGGLVQAGGSLRLSCVASGRTFSSHPMGWFRQAPGKEREFVAGISWSGGSTHYADSVKGRFTISRDTAKNTVYLQMNSLKPEDTAVYYCNAALSERTPIATMPSQYDYWGQGT
notes: not shown: constant region from the vector
53.3: 结合 (SPR binding response) [7]
no binding (tested: 100μg/ml): binding result [1] | binding result [2] | binding result [3] | binding result [4] | binding result [5] | binding result [6]
